Columns and labels:
[1] = biological target: Schmallenberg virus (SBV) nucleocapsid (N) protein (Schmallenberg virus); test: negative-stain electron microscopy with single-particle averaging
[2] = biological target: Schmallenberg virus (SBV) nucleocapsid (N) protein (Schmallenberg virus); test: crystal structure
[3] = biological target: Schmallenberg virus (SBV) nucleocapsid (N) protein (Schmallenberg virus); test: SEC
[4] = biological target: Selenomethionine-substituted SBV N protein (Schmallenberg virus); test: crystal structure
SEC = biological target: the molecule itself; test: SEC
[5] = biological target: BUNV N (nucleocapsid) wild type (Bunyamwera virus, UniProt P16495 1-233); test: fluorescence polarization
[6] = biological target: T1, SBV N (nucleocapsid) wild type (Schmallenberg virus isolate BH80/11-1, UniProt H2AM13 1-233); test: fluorescence polarization
T1 sequence: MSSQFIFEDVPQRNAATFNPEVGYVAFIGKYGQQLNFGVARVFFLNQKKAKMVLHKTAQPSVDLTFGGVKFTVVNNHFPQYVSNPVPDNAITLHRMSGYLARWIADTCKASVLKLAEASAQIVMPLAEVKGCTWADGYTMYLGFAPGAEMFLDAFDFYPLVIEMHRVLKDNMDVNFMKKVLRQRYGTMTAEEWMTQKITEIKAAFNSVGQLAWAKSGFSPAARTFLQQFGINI

Schmallenberg virus (SBV) nucleocapsid (N) protein (natural protein)
stoichiometry N [1]: 4 | stoichiometry N [2]: 4 | stoichiometry N [3]: 4

Selenomethionine-substituted SBV N protein (natural protein)
stoichiometry N [4]: 4

B1: Bunyamwera virus (BUNV) nucleocapsid (N) protein (natural protein)
chain: MIELEFHDVAANTSSTFDPEVAYANFKRVHTTGLSYDHIRIFYIKGREIKTSLAKRSEWEVTLNLGGWKITVYNTNFPGNRNNPVPDDGLTLHRLSGFLARYLLEKMLKVSEPEKLIIKSKIINPLAEKNGITWNDGEEVYLSFFPGSEMFLGTFRFYPLAIGIYKVQRKEMEPKYLEKTMRQRYMGLEAATWTVSKLTEVQSALTVVSSLGWKKTNVSAAARDFLAKFGINM
stoichiometry N (SEC): 4

AGUAGUGUACUCCACACUACAAACUUGCUAUUGUUGAAAAUCGCUGUG (ssRNA) [BUNV48AG]
Kd [5]: 62.9 ± 5 nM | Kd [6]: 21.3 ± 1 nM

From article PMC3675483 (Nucleic Acids Research, 2013)
